From patent US20250122267A1 come the findings set out here.

Bounds are passed on as bounds.

The target of the assay is serum TGFβ1 of the treated mice (mouse) (UniProt P04202). Kind of assay: cell-based or functional assay.
Sequence of UniProt P04202 (P04202 279-390 limits assumed): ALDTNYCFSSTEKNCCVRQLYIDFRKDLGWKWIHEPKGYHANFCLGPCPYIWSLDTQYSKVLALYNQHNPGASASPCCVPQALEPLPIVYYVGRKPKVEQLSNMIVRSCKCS

For “sTGFbR2-Fc(igg2Ae), fusion of the mouse TGFbR2 extracellular domain with the mouse igg domain (Fc fusion)”, the serum TGFβ1 after administration of the AAV encoding the soluble receptor (FIG. 2, TGFb1 knockdown versus dosage) was < 95%.
